The target of the assay is β:C12A yeast αβ-tubulin (yeast) (UniProt P09733). Briefly: microtubule elongation rates by time-lapse DIC microscopy.

On to “β:C12A yeast αβ-tubulin (from UniProt P09733 1-447; P02557 1-457) (complex)”, for which the affinity of the interactions that drive elongation (extrapolation to the x-axis) was 42 nM and the kon is 1.22e+07 M⁻¹ s⁻¹.

The values above are taken from PMC5221584.
